Key:
[1] = molecular target: T1, APC2257-AA; experiment: two-hybrid library CCmax;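 note: natural log of median RNA to DNA barcode read ratio; higher means stronger binding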
T1 chain: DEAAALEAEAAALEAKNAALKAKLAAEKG

[2] = molecular target: T2, APC2375-AA; experiment: two-hybrid library CCmax; settings: mean of both orientations;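 note: natural log of median RNA to DNA barcode read ratio; higher means stronger binding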
T2 chain: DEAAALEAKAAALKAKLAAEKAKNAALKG

[3] = molecular target: T3, APC2474-AA; experiment: two-hybrid library CCmax; settings: mean of both orientations;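 note: natural log of median RNA to DNA barcode read ratio; higher means stronger binding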
T3 chain: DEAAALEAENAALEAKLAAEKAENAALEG

[4] = molecular target: T4, APC2543-AA; experiment: two-hybrid library CCmax; settings: mean of both orientations;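 note: natural log of median RNA to DNA barcode read ratio; higher means stronger binding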
T4 chain: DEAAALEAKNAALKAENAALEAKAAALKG

[5] = molecular target: T5, APC2556-AA; experiment: two-hybrid library CCmax; settings: mean of both orientations;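 note: natural log of median RNA to DNA barcode read ratio; higher means stronger binding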
T5 chain: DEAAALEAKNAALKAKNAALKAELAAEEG

[6] = molecular target: T6, APC2724-AA; experiment: two-hybrid library CCmax; settings: mean of both orientations;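 note: natural log of median RNA to DNA barcode read ratio; higher means stronger binding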
T6 chain: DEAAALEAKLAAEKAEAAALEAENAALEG

[7] = molecular target: T7, APC2811-AA; experiment: two-hybrid library CCmax; settings: mean of both orientations
T7 chain: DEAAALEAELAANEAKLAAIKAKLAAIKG

[8] = molecular target: T8, APC2981-AA; experiment: two-hybrid library CCmax; settings: mean of both orientations
T8 chain: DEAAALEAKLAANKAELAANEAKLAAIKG

[9] = molecular target: T9, APC3265-AA; experiment: two-hybrid library CCmax
T9 chain: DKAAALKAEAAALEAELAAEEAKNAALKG

[10] = molecular target: T10, APC3323-AA; experiment: two-hybrid library CCmax; settings: mean of both orientations
T10 chain: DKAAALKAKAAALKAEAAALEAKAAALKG

[11] = molecular target: T11, APC3354-AA; experiment: two-hybrid library CCmax; settings: mean of both orientations
T11 chain: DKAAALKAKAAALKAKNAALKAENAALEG

[12] = molecular target: T12, APC3881-AA; experiment: two-hybrid library CCmax; settings: mean of both orientations
T12 chain: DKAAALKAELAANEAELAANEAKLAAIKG

[13] = molecular target: T13, APC4100-AA; experiment: two-hybrid library CCmax; settings: mean of both orientations
T13 chain: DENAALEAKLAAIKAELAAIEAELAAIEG

[14] = molecular target: T14, APC4336-AA; experiment: two-hybrid library CCmax; settings: mean of both orientations
T14 chain: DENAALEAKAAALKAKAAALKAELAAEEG

[15] = molecular target: T15, APC5009-AA; experiment: two-hybrid library CCmax; settings: mean of both orientations
T15 chain: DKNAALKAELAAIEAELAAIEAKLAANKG

[16] = molecular target: T16, APC542-AA; experiment: two-hybrid library CCmax; settings: mean of both orientations
T16 chain: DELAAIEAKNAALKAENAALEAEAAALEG

[17] = molecular target: T17, APC5531-AA; experiment: two-hybrid library CCmax; settings: mean of both orientations
T17 chain: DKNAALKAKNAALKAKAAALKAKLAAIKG

[18] = molecular target: T18, APC6088-AA; experiment: two-hybrid library CCmax; settings: mean of both orientations
T18 chain: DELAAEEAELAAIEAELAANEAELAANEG

[19] = molecular target: T19, APC7524-AA; experiment: two-hybrid library CCmax; settings: mean of both orientations
T19 chain: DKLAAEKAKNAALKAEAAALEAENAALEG

[20] = molecular target: T20, APC8401-AA; experiment: two-hybrid library CCmax; settings: mean of both orientations
T20 chain: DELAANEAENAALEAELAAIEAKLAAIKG

[21] = molecular target: T21, APC8516-AA; experiment: two-hybrid library CCmax; settings: mean of both orientations
T21 chain: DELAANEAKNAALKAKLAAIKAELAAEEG

[22] = molecular target: T22, APC9141-AA; experiment: two-hybrid library CCmax; settings: mean of both orientations
T22 chain: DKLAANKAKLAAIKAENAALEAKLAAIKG

[23] = molecular target: T23, APC9182-AA; experiment: two-hybrid library CCmax; settings: mean of both orientations
T23 chain: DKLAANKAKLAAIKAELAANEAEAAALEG

[24] = molecular target: T24, APC9291-AA; experiment: two-hybrid library CCmax; settings: mean of both orientations
T24 chain: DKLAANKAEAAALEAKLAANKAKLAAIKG

[25] = molecular target: T25, APC9806-AA; experiment: two-hybrid library CCmax; settings: mean of both orientations
T25 chain: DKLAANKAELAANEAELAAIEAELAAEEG

[26] = molecular target: T26, 4H344-bA; experiment: two-hybrid library CCNG1
T26 chain: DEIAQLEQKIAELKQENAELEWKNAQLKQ

[27] = molecular target: T27, 4H363-bA; experiment: two-hybrid library CCNG1
T27 chain: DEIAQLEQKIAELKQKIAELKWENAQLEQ

[28] = molecular target: T28, 4H3907-bA; experiment: two-hybrid library CCNG1
T28 chain: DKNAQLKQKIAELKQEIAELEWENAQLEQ

[29] = molecular target: T29, 4H3961-bA; experiment: two-hybrid library CCNG1
T29 chain: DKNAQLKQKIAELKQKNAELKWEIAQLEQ

[30] = molecular target: T30, 4H470-bA; experiment: two-hybrid library CCNG1
T30 chain: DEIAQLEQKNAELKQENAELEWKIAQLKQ

For DEAAALEAEAAALEAKNAALKAKLAAEKG [APC2257-AA], the interaction score [1] was -1.12, the interaction score [2] was -1.42 and the interaction score [3] was -1.46. The interaction score [4] was -1.02, the interaction score [5] was -1.99 and the interaction score [6] was -1.47. The interaction score [7] was 1.49, the interaction score [8] was -1.18 and the interaction score [9] was -1.43. It also gave an interaction score [10] of -1.58, an interaction score [11] of -1.45 and an interaction score [12] of -1.31. The interaction score [13] was -1.56, the interaction score [14] was -1.71 and the interaction score [15] was -1.07. The interaction score [16] was -1.54, the interaction score [17] was -1.97 and the interaction score [18] was -1.24. The interaction score [19] was -1.59, the interaction score [20] was -1.32 and the interaction score [21] was -1.64. It also gave an interaction score [22] of -1.37, an interaction score [23] of -1.86 and an interaction score [24] of -1.61. The interaction score [25] was -1.79.

DEIAQLEQKIAELKQENAELEWKNAQLKQ [4H344-bA] gave an interaction score [26] of -0.268, an interaction score [27] of -0.443 and an interaction score [28] of 0.155. It also gave an interaction score [29] of 1.48 and an interaction score [30] of 0.691.

Source: publication PMC10397247
